Earlier results in paper PMC4440831 (Chembiochem : a European journal of chemical biology, 2015).

Molecular target: CXCR4 receptor (Homo sapiens, UniProt P61073)
Conditions: earlier work of the same group

Chain of CXCR4 receptor (P61073 whole entry): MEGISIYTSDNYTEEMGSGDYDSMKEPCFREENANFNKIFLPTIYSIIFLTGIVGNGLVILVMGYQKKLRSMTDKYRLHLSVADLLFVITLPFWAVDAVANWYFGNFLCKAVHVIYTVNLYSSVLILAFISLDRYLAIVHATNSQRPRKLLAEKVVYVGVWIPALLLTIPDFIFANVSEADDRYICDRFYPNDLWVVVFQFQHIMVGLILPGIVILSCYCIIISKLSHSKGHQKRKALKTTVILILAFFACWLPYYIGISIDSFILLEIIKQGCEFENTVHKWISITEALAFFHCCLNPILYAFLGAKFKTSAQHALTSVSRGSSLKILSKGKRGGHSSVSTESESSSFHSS

## MCoTI-I: empty scaffold cyclotide (SGSDGGVCPKILQRCRRDSDCPGACICRGNGYCG; not fully specified; Trypsin inhibitor 1; UniProt P82408 1-34, looked up)
  CXCR4 inhibitory activity, result in words: no inhibitory activity
